# Assay results published in IntAct's records for PubMed 18001824.
# B1: E3 ubiquitin-protein ligase RNF8 (Homo sapiens), O76064 (parent)
# chain: MGEPGFFVTGDRAGGRSWCLRRVGMSAGWLLLEDGCEVTVGRGFGVTYQLVSKICPLMISRNHCVLKQNPEGQWTIMDNKSLNGVWLNRARLEPLRVYSIHQGDYIQLGVPLENKENAEYEYEVTEEDWETIYPCLSPKNDQMIEKNKELRTKRKFSLDELAGPGAEGPSNLKSKINKVSCESGQPVKSQGKGEVASTPSDNLDPKLTALEPSKTTGAPIYPGFPKVTEVHHEQKASNSSASQRSLQMFKVTMSRILRLKIQMQEKHEAVMNVKKQTQKGNSKKVVQMEQELQDLQSQLCAEQAQQQARVEQLEKTFQEEEQHLQGLEIAQGEKDLKQQLAQALQEHWALMEELNRSKKDFEAIIQAKNKELEQTKEEKEKMQAQKEEVLSHMNDVLENELQCIICSEYFIEAVTLNCAHSFCSYCINEWMKRKIECPICRKDIKSKTYSLVLDNCINKMVNNLSSEVKERRIVLIRERKAKRLF
# Variants of: B1
# Conditions: with mdc1_human MDC1, Q14676
# Sequence of mdc1_human MDC1, Q14676 (Q14676 whole entry): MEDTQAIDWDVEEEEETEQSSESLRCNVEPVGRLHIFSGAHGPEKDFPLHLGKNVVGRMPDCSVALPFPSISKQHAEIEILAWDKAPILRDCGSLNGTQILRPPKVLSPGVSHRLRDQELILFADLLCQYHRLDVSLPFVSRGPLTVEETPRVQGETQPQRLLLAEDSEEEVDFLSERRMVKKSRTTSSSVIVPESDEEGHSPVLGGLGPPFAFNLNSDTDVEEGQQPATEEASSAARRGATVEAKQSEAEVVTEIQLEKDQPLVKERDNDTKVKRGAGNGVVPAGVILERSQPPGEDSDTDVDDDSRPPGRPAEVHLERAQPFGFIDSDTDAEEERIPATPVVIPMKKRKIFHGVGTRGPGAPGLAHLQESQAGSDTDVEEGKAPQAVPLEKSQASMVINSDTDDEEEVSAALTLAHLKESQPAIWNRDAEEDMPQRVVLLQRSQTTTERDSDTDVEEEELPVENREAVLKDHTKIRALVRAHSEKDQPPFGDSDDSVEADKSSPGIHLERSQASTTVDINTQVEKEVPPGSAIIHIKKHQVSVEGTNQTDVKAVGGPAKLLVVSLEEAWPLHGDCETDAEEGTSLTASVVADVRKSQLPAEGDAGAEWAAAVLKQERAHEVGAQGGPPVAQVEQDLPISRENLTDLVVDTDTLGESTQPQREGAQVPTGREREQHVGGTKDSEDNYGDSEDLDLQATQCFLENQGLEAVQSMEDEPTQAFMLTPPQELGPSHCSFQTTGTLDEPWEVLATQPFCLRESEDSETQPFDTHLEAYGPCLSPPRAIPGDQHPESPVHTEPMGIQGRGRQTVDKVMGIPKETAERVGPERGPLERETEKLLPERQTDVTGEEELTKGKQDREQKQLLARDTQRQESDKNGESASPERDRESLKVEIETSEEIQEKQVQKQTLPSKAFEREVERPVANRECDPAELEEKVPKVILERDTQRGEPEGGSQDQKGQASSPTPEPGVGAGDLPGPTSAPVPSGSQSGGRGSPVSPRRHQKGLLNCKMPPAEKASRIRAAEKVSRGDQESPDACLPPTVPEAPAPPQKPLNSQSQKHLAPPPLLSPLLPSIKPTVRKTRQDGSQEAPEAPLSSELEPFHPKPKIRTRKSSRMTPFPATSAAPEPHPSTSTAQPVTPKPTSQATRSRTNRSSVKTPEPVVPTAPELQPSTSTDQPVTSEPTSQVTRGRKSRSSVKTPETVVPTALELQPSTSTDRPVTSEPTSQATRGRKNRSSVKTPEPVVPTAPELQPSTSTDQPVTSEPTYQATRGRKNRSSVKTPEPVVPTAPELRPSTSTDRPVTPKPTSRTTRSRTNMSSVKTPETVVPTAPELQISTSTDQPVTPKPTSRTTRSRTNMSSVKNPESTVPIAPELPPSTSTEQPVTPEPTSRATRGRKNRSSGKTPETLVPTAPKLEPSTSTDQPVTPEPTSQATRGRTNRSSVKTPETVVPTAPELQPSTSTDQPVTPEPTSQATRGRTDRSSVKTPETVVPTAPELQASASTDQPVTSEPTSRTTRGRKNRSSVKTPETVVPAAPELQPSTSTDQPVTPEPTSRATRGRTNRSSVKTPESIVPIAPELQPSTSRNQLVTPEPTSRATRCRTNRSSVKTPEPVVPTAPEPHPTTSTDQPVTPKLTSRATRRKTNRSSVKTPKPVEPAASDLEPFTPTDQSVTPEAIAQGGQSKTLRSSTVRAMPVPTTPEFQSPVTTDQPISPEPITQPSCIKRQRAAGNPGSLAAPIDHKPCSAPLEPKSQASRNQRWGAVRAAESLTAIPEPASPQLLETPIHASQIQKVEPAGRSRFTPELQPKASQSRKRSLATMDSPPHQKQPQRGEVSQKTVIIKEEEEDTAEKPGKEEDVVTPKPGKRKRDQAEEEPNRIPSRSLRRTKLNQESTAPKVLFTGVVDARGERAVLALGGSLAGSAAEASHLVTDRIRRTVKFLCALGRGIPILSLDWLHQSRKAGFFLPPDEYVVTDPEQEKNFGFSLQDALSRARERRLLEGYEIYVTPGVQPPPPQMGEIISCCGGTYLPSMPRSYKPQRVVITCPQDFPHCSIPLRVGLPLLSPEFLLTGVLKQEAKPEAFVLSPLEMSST
row,effect of a mutation on the interaction,Variant
1,disrupting interaction,R42A
